Experimental data: PMC5311907, “ClickIn: a flexible protocol for quantifying mitochondrial uptake of nucleobase derivatives” (Interface Focus, 2017)

System: isolated rat liver mitochondria
Test: ClickIn/MPP uptake experiment in isolated rat liver mitochondria (MALDI-TOF quantification of clicked, processed PNA 8)
Assay type: in vitro ADME
Experimental: Rat liver mitochondria were prepared by differential centrifugation as previously described, and diluted to a 20 mg protein ml^−1 concentration in STE buffer (250 mM sucrose, 5 mM Tris, 1 mM EGTA, pH 7.4) and stored for a maximum of 3 h on ice. Peptide–PNA 6 was dissolved at the indicated concentrations in 100 µl KCl buffer (120 mM KCl, 10 mM HEPES, 1 mM EGTA, 1 mM ADP, 1 mM MgCl2, 1 mM KPi, 0.05% BSA, pH 7.4) supplemented with 10 mM potassium succinate, 4 µg ml^−1 rotenone and 10 µM MitoOct. Where indicated carbonyl cyanide-4-(trifluoromethoxy)phenylhydrazone (FCCP, 500 nM) was added to the buffer. The buffer was warmed for 5 min at 37°C after which the reaction was initiated by addition of 5 µl mitochondria suspension (100 µg protein). The mitochondria were incubated for 1 h at 37°C, after which the reaction was stopped by the addition of 3-phenyl-1,2,4,5-tetrazine (PhTet, 50 µM). The mitochondria were pelleted by centrifugation at 16 000g for 1 min, and supernatant was removed. Next 100 µl 20% acetonitrile solution with 0.1% formic acid, 50 µM PhTet and 0.1 µM internal standard 5 was added to the pellet. The pellet was suspended by three cycles of freezing in solid CO2 (5 min) and sonication in a Grant XB2 ultrasonic bath. The obtained solution was centrifuged at 16 000g for 10 min. The sample was spotted onto an MALDI-plate using the bottom-layer method. Matrix (0.75 µl, 50% acetonitrile, 5 mg ml^−1 α-cyano-4-hydroxycinnamic acid, 10 mM dibasic ammonium citrate, 0.1% TFA) was spotted on the plate and 0.75 µl sample was mixed in. The spot was left to dry at room temperature, after which another layer of 0.75 µl of matrix was added. In total, 20 spectra with 10 shots each were collected per spot, using a minimum intensity of 1000 and a maximum of 10 000 as selection criterion, averages were taken of three spots per experiment. All experiments were performed in triplicate using different mitochondrial preparations and are presented as averages ±s.e.m.
Isolated rat liver mitochondria were incubated with various concentrations of peptide (0.1–10 µM) in import buffer, in the presence of MitoOct, for 1 h at 37°C. As previously described, the reaction was stopped by addition of PhTET and centrifugation. The pellet was extracted (20% acetonitrile, 0.1% formic acid, 50 µM PhTet, 0.1 μM 5) and analysed by MALDI-TOF (figure 3 and electronic supplementary material, S1). […] This is consistent with FCCP not only inhibiting the ClickIn reaction, but also inhibiting the processing of COX8-PNA-click by stopping import of 6. The absence of signal in the presence of FCCP is striking (figure 3 and electronic supplementary material, S1), and enables the qualitative observation of PNA uptake in isolated mitochondria. […] It is interesting to note that, even though the MPP is known to cleave after the 25th residue of the COX8 pre-sequence, we see no evidence of the four amino acids, IHSL, predicted to remain at the N-terminal of our cleaved product. Our previous unpublished results have shown a very minor amount of the PNA product still carrying leucine at the N-terminal but not any of the remaining amino acids. It is likely that these residues are removed by a protease residing in the mitochondrial matrix.

COX8-Cys-Ac-GTCA-Lys(N3)-NH2 [compound 6]
formation of product 8 in the presence of FCCP (uncoupled membrane potential) (as the uptake experiment, plus FCCP 500 nM, all added concentrations of 6 (0.1–10 µM), 1 h at 37°C, MALDI-TOF): no product 8 could be observed | formation of clicked PNA (product 8) as measure of mitochondrial matrix import (isolated rat liver mitochondria (100 µg protein) in 100 µl KCl buffer pH 7.4, 10 mM succinate, 4 µg/ml rotenone, 10 µM MitoOct, 0.1–10 µM 6, 1 h at 37°C, stopped with 50 µM PhTet, pellet extract, MALDI-TOF with 0.1 µM internal standard 5, triplicate, different mitochondrial preparations): Significant amounts of clicked PNA were observed in all samples | concentration dependence of the ClickIn/MPP reaction (quantified 8) (isolated rat liver mitochondria, 10 µM MitoOct, 1 h at 37°C, MALDI-TOF with internal standard 5, figure 3c, averages ± s.e.m., triplicate): typical dose–response curve for concentrations of 6 up to 5 µM | cleaved but not clicked 6 seen in mass spectra (isolated rat liver mitochondria, 10 µM MitoOct, 1 h at 37°C, MALDI-TOF, without FCCP, not observed in the presence of FCCP): small amounts of cleaved but not clicked 6 | toxic effect on the mitochondria (isolated rat liver mitochondria, concentrations of 6 higher than 5 µM, inferred from the dose–response curve): might have a toxic effect on the mitochondria
